Laboratory results reported in patent US20250027068.

Target: pooled human IgG (human IgG1,2,3 and 4)

Protein | Enzyme Activity Endpoint Assay: Fab′2 [ng/µL] | Enzyme Activity Endpoint Assay: Fc [ng/µL] | Enzyme Activity Endpoint Assay: IgG [ng/µL] | Enzyme Activity Endpoint Assay: scIgG [ng/µL] | Enzyme activity endpoint: Fab′2 [ng/µL] | Enzyme activity endpoint: Fc [ng/µL] | Enzyme activity endpoint: IgG [ng/µL] | Enzyme activity endpoint: scIgG [ng/µL]
PRT-87 (protein) MANQEIRYSEVTPYHITSVWTKGVTPPEQFTQGEDVFHAPYIANQGWYDITKTFNGKDNLLCGAATAGNMLHWWFDQNKEEIERYLKKYPEKQKIMFGDQELLDVRKVINTKDSQTNSKLFEYFRDKAFPNLSARRLGVMPDLVLDMFINGYYLSVTKTQTTDVNRTYGNKDNRGGIFDAVFTRGDQSKLLTNRHDFKEKNLKEISQLIKQELQEGKALALSHTYANVRINHVINLWGADFDSEGNLKAIYVTDSDSNASIGMKKYFVGVNSSGKVAISAKEIEEDNIGAQVLGLFTLSTGQDIWEQTN | 0 | 52 | 60 | 50 | – | – | – | –
PRT-672 (protein) MQITSVWTKGVTPPTPEQFTYQNEDVFHAPYIANQGWYDITKTFNGKDNLLCGAATAGNMLHWWFDQNKTEIENYLKKHPEKQKIIFNNQEMFDLRKAINTKDSQTNSALFEYFRDKAFPNLSARQLGVMPDHVLDMFINGYYLNVTKTQSTDVNRPYQTKDKRGGIFDHVFTRGDQSKLLTARHDLKNKTLNEISDLIKQELTEGKALALSHTYANVRINHVINLWGADFDAEGNLEAIYVTDSDSNASIGMKKYFVGVNSSGKVAISAKKIEDDNIGAQVLGLFTLSSGQDIWEQLSLEHHHHHH | – | – | – | – | 775 | 443 | 73 | 0
PRT-85 (protein) MANQEIRYSEVTPKTITSVWTKGVTPPADFTQGEDVFHAPYKPNQGWYDINKTFNGKDNLLCGAATAGNMLHWWFDQNKEQIEAYLKKHPEKQKIMFGDQELLDVRKAINTKDDQTDSKLFNYFKDKAFPNLSARRLGVMPDHVLDMFINGYRLNVTKTQTTDVNRTYQTKDKRGGFFDAVFTRGDQSKLLTNRHDFKEKNLKEISDLIKKELTEGKALGLSHTYANVRINHVINLWGADFDSEGNLKAIYVTDSDSNASIGMKKYYVGVNSAGKVAISAKEIKGENIGAQVLGLYTLSTGQDIWNQTN | 0 | 0 | 109 | 0 | – | – | – | –
PRT-86 (protein) MANQEIRYSEEDPKHVTSVWTKGVTPPTDFTQGEDVLHAPYIANQGWYDITKTFNGKDDLLCGAATAGNMLHWWFDQNKEEIENYLKKHPEKQKIMFGDQELLDVRKVINTKDSQTNSKLFNYFREKAFPNLSARRLGVMPDLVLDMFINGYYLNVTKTQTTDVNRTYQTKDKRGGIFDAVFTRGDQTKLLTNRHDFKEKTLNEISDLIKQELQEGKALGLSHTYANVRINHVINLWGADFDSNGNLEAIYVTDSDANASIGMKKYFVGKNSAGKVAISAKEIKDDNIGAQVLGLFTLSTGQDIWNQTN | 4 | 61 | 45 | 53 | – | – | – | –
PRT-84 (protein) MANQEIRYSEETPYTVTSVWTKGVTPPTQFIQGEDVFHAPYKANQGWYDITKTFNGKDNLLCGAATAGNMLHWWFDQNKEYIEAYLKKHPEKQKIMFGDQELLDVRKVINTKDSQTDSKLFNYFKDKAFPNLSARRLGVMPDLVLDMFINGYYLNVGKTQTTDVNRTYQEKDKRGGIFDAVFTRGDQSKLLTSRHDFKEKSLKEISDLIKKELTEGKALGLSHTYANVRINHVINLWGADFDSEGNLKAIYVTDSDSDASIGMKKYFVGVNSSGKVAISAKEIEEDNIGAQVLGLFTLSSGQDIWNQTN | 8 | 67 | 27 | 51 | – | – | – | –
